{"source": "the DeepSol protein solubility set", "experiment": "soluble on expression in E. coli; label from the status in PepcDB or PDB records", "data": [{"sequence": "MATQINQKFGSKYKSNRKDETPMFEVRNGKSVIKNSGNHEATVNRTLDFHMTKLFQWEEQSDAIESSYVCALCHENGEKRELFGPYYATHNPIKYWPSFLAKKPTAKKPTKIELWFHGSCVLWAPNVHLHGNQLTNLDNQIDIFWSQTCIVCRKTGAAISVQNKKNTFIHYPCAKNKGYKLDEHALLCNS", "values": [{"measurement": "soluble on expression in E. coli", "result": "soluble"}]}, {"sequence": "MGSDKIHHHHHHMTPRANALPTDAGELYYSYARPADGALPSLSRQKGLLGIITFQTGFVGEGDGAKPEGILQIPLSGRGDDLCELWKTTQPVLAGTFGDITYRCSRDFLFGSIALAVADLPAGNHGLIHPPLQNAAELAYQQIFSLLDRHGYPGLLRIWNFVPDINGVSHGLEHYRQFNIGRQDAFLAHNRLPSRQNIPAASALGSVDGPLVVYFLAARRNSVAVENPRQISAYHYPQEYGPSSPTFSRAGWVDLGQQKILFISGTASIIGHQTRHGGNVAAQARESMANIAAVVAETNRVAAGSPYDLNDLSYKVYLRQFTDLPIVRAELDRLVTPKAPIFYLQADICRADLLVEIEATAGVLHGGMA", "values": [{"measurement": "soluble on expression in E. coli", "result": "not soluble"}]}, {"sequence": "EFGQNRATLLASIDVALEHAELFAADDDQMGLFLDESFSIKPKYVETEELPLVDLLAFEKETLGIYFSNHPLSAFRKQLTAQGAVSILQAQRAV", "values": [{"measurement": "soluble on expression in E. coli", "result": "not soluble"}]}, {"sequence": "MRPYYIAIVGSGPSAFFAAASLLKAADTTEDLDMAVDMLEMLPTPWGLVRSGVAPDHPKIKSISKQFEKTAEDPRFRFFGNVVVGEHVQPGELSERYDAVIYAVGAQSDRMLNIPGEDLPGSIAAVDFVGWYNAHPHFEQVSPDLSGARAVVIGNGNVALDVARILLTDPDVLARTDIADHALESLRPRGIQEVVIVGRRGPLQAAFTTLELRELADLDGVDVVIDPAELDGITDEDAAAVGKVCKQNIKVLRGYADREPRPGHRRMVFRFLTSPIEIKGKRKVERIVLGRNELVSDGSGRVAAKDTGEREELPAQLVVRSVGYRGVPTPGLPFDDQSGTIPNVGGRINGSPNEYVVGWIKRGPTGVIGTNKKDAQDTVDTLIKNLGNAKEGAECKSFPEDHADQVADWLAARQPKLVTSAHWQVIDAFERAAGEPHGRPRVKLASLAELLRIGLG", "values": [{"measurement": "soluble on expression in E. coli", "result": "soluble"}]}, {"sequence": "MFVFDATPLIYLAKAERLSLLSRLDASRLIPQRVYEEVVTVGLDAGYPDARRIEQSVEEGTFDVVSVPETTLFDRLSGNPNVSDADVAVLALAADHGATAVMDDAYGRDIAAVEAIETRGTAYLVLSLVRDGELEADDARETLEAMLDAGWHCSPSLYSKLLSKLEELAVGGADNRLEHHHHHH", "values": [{"measurement": "soluble on expression in E. coli", "result": "not soluble"}]}, {"sequence": "GPGSMPPRRKSECLSSYAVDTTPSFQDEKFIEQLLHFVGANDEVSLLTMTAVALGAECYQVDLGQQIVVDARLDFINFCAKQGYCAAKVVHLLKWLCTFQERVEDGCNTQEMQEEVIAFVTSEVEEEWKWKRALQAEEALWEVQSSSKTSARRGHRAAEKVVEETEAVSTVPKENIYLQREDIGPFSTWLIQGIVQHASLYHYVATHARMVGEPEEFNYFLEVPVSAPPLRNALAPESVPQEPPLAKAQQDVEEQRASELETYKKEYEEAMALEQLRLQTIQNERDMKVFIENEGSMRAVEDTYESLQVDLSKRQRQILERITAAEKALGIFPFVQPQ", "values": [{"measurement": "soluble on expression in E. coli", "result": "not soluble"}]}, {"sequence": "MAYVKERIYESMFIIAPNVPEEERENLVERVKKIIEERVKGKIDKVERMGMRKFAYEIKKFNEGDYTVIYFRCDGQNLQELENFYRVTPEIIRWQTFRRFDLEKKERKAQREKAAAEATESSEGGSED", "values": [{"measurement": "soluble on expression in E. coli", "result": "not soluble"}]}, {"sequence": "MVSQTERQHAIASLLAPTGAVSVGDLAEHFHVTTETVRRDLRIMESLGLLQRVHGGAISPEPMGTSPPRLKPALGKGMPPEPRVLELAETAVSLITPLARSIFLDSGLACTAIATVLGDPPEDARWTVVTSSPGAVIALSATDATSTVVLHGQVHGNCSSIIGSTAVDMISQLRADIAFVEVDAIQSDTSLCTFFPETIPIKQAMIKNAAFTVAVLSPRSPQDQELQLLKHPFSTLADFDALVTDDHTLDFPVLPDHNFQVVTPLEHHHHHH", "values": [{"measurement": "soluble on expression in E. coli", "result": "soluble"}]}, {"sequence": "MGSDKIHHHHHHMTEGWDALDAELEQWAAAGLRLPLWWRDDDAVTPTDALTRLEAMATRLDLPVHLAVIPKAAEDALAQHVSQSSHLIPVVHGWAHVNHANPDKKTCEFPSTRPVDEALTDAEQGVERLKHLFGARLQPMFVPPWNRISPAMLPWLAGLGFAAISTYGPRKRTQAASGLVQINTHIDPIDWKGGRGLMPEAQILQKLVANLQARRSGQQDNAEPLGLLTHHLVHTDEVWEFCDTLLRRLLEGPAHPWRFNERIN", "values": [{"measurement": "soluble on expression in E. coli", "result": "not soluble"}]}, {"sequence": "MSAEPHIVIIGGGFSGAAVAIELLRLAPNGVRVTLLEPRQSPGAGVAYSTAEPTHRINVPAARMQLAGDEEGAFDHWYRHQPAFAVDVQALRPDGSVYPQRGQFGRYVAQRFADAAASSGGRLRHLRDRALAFHQGTVTTDGGLQFKADLLVLAISHPPPSLPPQAEAWRHHPALIANPWQPGALDAIAPHARVAVMGTGLTMADTVVTLDRLGH", "values": [{"measurement": "soluble on expression in E. coli", "result": "not soluble"}]}, {"sequence": "MGSDKIHHHHHHMGSETEYGIHAPSAPGANATMMSARVIQAYAQLTRQRAAGGAETRWDYTDEEPLHDARGWTLERNQADPSQLTDQPPVLDAEAVALAYGREELEQDGEDETGSLLMNMVLGNGARLYVDHAHPEYSSPEVTNPLDAVAWDAAGDLVALSAVRRMAADPQLPPVNLYKNNTDNKSVSYGSHENYLMPRAVPFGDIVRGLTPFFITRQIMCGAGRVGLGQDSSRPGYQISQRADFFEAEVGLETTIRRPIINTRDEPHATADKYRRLHVIIGDANLSQAANYLKFGTTAMVLSLIEAGLAPRVEVHEPVAALQAVSHDTSLTATLRLLDGRRVTALDLQWMYHEAAAKLAQDTGVGDSVDGDGHTHALLERWAATLTDLDSDRTAAASSVEWLAKLSLLEGYRQRDGLQWNDARLGLVDLQWADVRPEKGLYYRMLARGRMDRIVADETIARAMTEPPSDTRAYFRGRCVSSFSKDVVGASWDSVIFDVPGHGRLQRVPTREPLRGTEALTGGLFARHKDTGSFLAELLGQTPPPPPA", "values": [{"measurement": "soluble on expression in E. coli", "result": "not soluble"}]}, {"sequence": "RQEQRRTDHELREQLHFRQALIDAIPAPIYFMDTTGIFLGCNKAFEAFSGHTQDEIVGKTIYDLMPPSLAKHTDSADRELFEHGGIQIYESVISFADGALHDVIFYKATFTTTEKNIGGLVGTILDIT", "values": [{"measurement": "soluble on expression in E. coli", "result": "not soluble"}]}, {"sequence": "MELIDKFITLHDQLRKDLNLASLCISKAKTTHGIGLFSVNSVDTHDLEPSIRLDTKNGKFVLLKNSENEEEKNDKKNKKKKDENKSEKKNSGESEDVEEAKKTFSGQFRPFGVLEPAAAKDARKIYRNSIQTILDLVSTQQSILAKSRQLVEDC", "values": [{"measurement": "soluble on expression in E. coli", "result": "not soluble"}]}, {"sequence": "MGSDKIHHHHHHMKTRQEALDYGLSFPNTYQEAPFHDPNWQLIRVKDSKKVFLWTYERNGFINLNVKVSPAWRDFWRDAFPSVIPGWHQNKDNWNTIILDGSIPDDAIKNMISDSYDLVTYNPTRLIYEAVKRIPKGCVATYAQVAELAGNKKMCRAVGNALHKNPNPDEIPCYRVVNAKGELSGAFAFGGADEQANRLRADGIEVIDGRVDLDKYGIRIVDDVIYTKTTVEPLT", "values": [{"measurement": "soluble on expression in E. coli", "result": "not soluble"}]}, {"sequence": "MAHHHHHHMVTVPKLQAMREAGEKIAMLTSYDASFAALLDRANVDVQLIGDSLGNVLQGQATTLPVTLDDIAYHTACVARAQPRGLVVADLPFGTYGTPADAFASAVKLMRAGAQMVKLEGGEWLAETVRFLVERAVPVCAHVGLTPQSVHAFGGFKVQGKTEAGAAQLLRDARAVEEAGAQLIVLEAVPTLVAAEVTRELSIPTIGIGAGAECSGQVLVLHDMLGVFPGKRPRFVKDFMQGQPSIFAAVEAYVRAVKDGSFPGPEHSF", "values": [{"measurement": "soluble on expression in E. coli", "result": "soluble"}]}, {"sequence": "DIQMNQSPSSLSASLGDTITITCHASQNINVWLNWFQQKPGSIPKLLIYMASNLHTGVPSRFSGSGSGTGFTLTISSLQPEDIATYYCQQGQSFPLTFGGGTKLEIKRADAAPTVSIFPPSSEQLTSGGASVVCFLNNFYPKDINVKWKIDGSERQNGVLNSWTDQDSKDSTYSMSSTLTLTKDEYERHNSYTCEATHKTSTSPIVKSFNRN", "values": [{"measurement": "soluble on expression in E. coli", "result": "soluble"}]}, {"sequence": "MQQPEQYCRFLCLVAHEFFHLWNIKRIRPQAFEVFDYDSENYTTSLWFVEGVTSYFDQLIPLWAGLFDAPTYLKLLSDSLNRYFHTPGRFVQSLSAASFDAWIKLYRPDENSINSQMSYYLKGELVALLLDLRLEHHHHHH", "values": [{"measurement": "soluble on expression in E. coli", "result": "not soluble"}]}, {"sequence": "MGSDKIHHHHHHMNNYNDTIRNLDNIVYKPNNLMITNVKEEKQNAEYAGCIFHLNNKTIRFRKSKITPNKIGQFVSFWEKGDNMQNQAFSYNAAPDLLVITCIDDNKLGQFIFPKEILLKEKILRTENQKGKMAMRIYPIWDTPVSNQAKKSQLWQIQYFVDLSNHNNLTIDELLNLYS", "values": [{"measurement": "soluble on expression in E. coli", "result": "not soluble"}]}, {"sequence": "MSKYLHSEKAYLDLINAVKDKFNYKKSVVPYIIYFLLKTGMRYGELIALTWEDIDFDKGIFKTYRRFNSETSQFVPPKNKTSIRIVPVDNECLEILKNLKIEQNQSNKELGLQNTNNMVFQHFGYPNSVPSTNGTNKVLRGIVQELNIEPIITTKGARHTYGSFLWHRGYDLGIIAKILGHKDISMLIEVYGHTLEEKIQEEYNEIKQLWLEHHHHHH", "values": [{"measurement": "soluble on expression in E. coli", "result": "soluble"}]}, {"sequence": "MRCGIAGLCARAKKVLGEDPAGGTLLVFRGRMGDRLKILHWDGQDFCLYYKVLERGHFPWPKATEGKVALTPAQMAMLWEGIDWRQPRWTSAPTRM", "values": [{"measurement": "soluble on expression in E. coli", "result": "not soluble"}]}, {"sequence": "MQKIGEWLKEHDVKVTTIYFGGGTPTSITAEEMDLLYEEMVRSFPDVKNIREITVEAGRPDTITEEKLAVLNKYDIDRISINPQSYENETLKAIGRHHTVEETIEKYHLSRQHGMNNINMDLIIGLPGEGVKEFRHSLSETEKLMPESLTVHTLSFKRASEMTRNKHKYKVAGREEVSQMMEDAVAWTKEHGYVPYYLYRQKNILGNLENVGYSLPGQESIYNIMIMEEVQTIIGIGCGAASKFIDRDTGKITHFANPKDPKSYNERFEHYTDEKIKYLEQIFEKTTKQHLEHHHHHH", "values": [{"measurement": "soluble on expression in E. coli", "result": "not soluble"}]}, {"sequence": "NQLLGMHQIEKEMTQYFGIQRCIVVAGDSDIQKKVLSDFGDVLTNTLNLLLPNGENTIAVMGGTTMAMVAENMGSLETEKRHNLFVPARGGIGEAVSVQANSISAVMANKTGGNYRALYVPEQLSRETYNSLLQEPSIQEVLTLISHANCVVHSIGRALHMAARRKMSDDEMVMLKQKNAVAESFGYFFDEEGKVVYKIPRIGLQLKNLQEIPYVVAIAGGKTKAKAIRAYMKNAPKQTWLITDEAAANEILKGVTL", "values": [{"measurement": "soluble on expression in E. coli", "result": "not soluble"}]}, {"sequence": "MSLVVFLLLKSQFLYGEDFKLRKGTLIIEEGIIKGFTDEHNEREVIEFKGLVIPSLINAHTHIADNSIKDIGINKTLDELVKPPNGLKHRYLTECSDDLLAEGMKLGLGDMREHGIKYFCDFRENGVRGISLLNKALKCYDYPKAIILGRPIKVDKDEIEEVLKVSNGLGLSGANEFKDDELKLIFKIFKKFKEKDDKKLFAIHAAEHRGAVEYSLNKYGMTEVERLIDLKIKPDFIVHGTHLTDNDLELLKENNIPVVACVRANLSFNVGMPKLNELNDNLLVGIGTDNFMANSPSIFKEMDFIYKLYHIEPKDILRMATINNAKILKLENVGLVDEGFKAVFTFIKPTNAILFSKNIIASVVTRCEKGDVVDFSLMENEEEGHHHHHH", "values": [{"measurement": "soluble on expression in E. coli", "result": "soluble"}]}]}
